Test results as given in patent US20100184658A1 (published 2010).

What was measured:
Experiment in all cases: cell-based or functional assay
[1] = molecular target: T1, IKBKB (IKK beta) IKK2 (human (printed as (h)), UniProt O14920 1-756, limits assumed)
T1 sequence (looked up): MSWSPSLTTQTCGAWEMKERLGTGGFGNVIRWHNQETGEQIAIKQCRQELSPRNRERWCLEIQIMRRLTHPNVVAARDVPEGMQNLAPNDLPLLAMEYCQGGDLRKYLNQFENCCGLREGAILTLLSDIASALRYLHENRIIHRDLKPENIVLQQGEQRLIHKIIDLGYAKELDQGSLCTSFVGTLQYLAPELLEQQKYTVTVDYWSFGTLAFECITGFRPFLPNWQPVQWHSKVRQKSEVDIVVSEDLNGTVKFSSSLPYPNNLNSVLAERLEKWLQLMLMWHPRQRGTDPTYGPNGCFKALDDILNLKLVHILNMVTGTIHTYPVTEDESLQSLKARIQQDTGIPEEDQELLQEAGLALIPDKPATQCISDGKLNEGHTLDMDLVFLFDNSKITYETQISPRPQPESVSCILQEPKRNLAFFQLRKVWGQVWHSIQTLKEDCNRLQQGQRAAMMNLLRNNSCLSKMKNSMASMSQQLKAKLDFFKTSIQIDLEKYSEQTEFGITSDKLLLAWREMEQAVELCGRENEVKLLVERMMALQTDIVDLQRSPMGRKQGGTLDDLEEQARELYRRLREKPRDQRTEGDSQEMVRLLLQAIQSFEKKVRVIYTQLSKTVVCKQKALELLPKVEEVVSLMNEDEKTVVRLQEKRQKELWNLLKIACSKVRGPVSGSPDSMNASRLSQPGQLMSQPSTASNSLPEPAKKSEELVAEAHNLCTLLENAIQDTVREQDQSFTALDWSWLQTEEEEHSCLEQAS

[2] = molecular target: IR (h) (human (printed as (h)), UniProt P06213 1005-1310, limits assumed)
Chain of IR (h) (human (printed as (h)), UniProt P06213 1005-1310, limits assumed) (P06213 1005-1310 limits assumed): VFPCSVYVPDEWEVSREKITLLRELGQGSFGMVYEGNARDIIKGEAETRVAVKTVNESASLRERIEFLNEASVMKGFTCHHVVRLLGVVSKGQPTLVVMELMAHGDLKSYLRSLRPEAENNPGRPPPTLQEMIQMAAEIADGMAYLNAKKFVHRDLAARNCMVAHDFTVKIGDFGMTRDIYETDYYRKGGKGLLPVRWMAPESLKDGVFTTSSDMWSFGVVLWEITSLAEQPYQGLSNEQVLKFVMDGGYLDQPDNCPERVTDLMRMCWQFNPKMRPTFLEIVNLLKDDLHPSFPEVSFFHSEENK

[3] = molecular target: MAPK2(h) (human (printed as (h)), UniProt P28482 1-360)
Chain of MAPK2(h) (human (printed as (h)), UniProt P28482 1-360) (P28482 whole entry): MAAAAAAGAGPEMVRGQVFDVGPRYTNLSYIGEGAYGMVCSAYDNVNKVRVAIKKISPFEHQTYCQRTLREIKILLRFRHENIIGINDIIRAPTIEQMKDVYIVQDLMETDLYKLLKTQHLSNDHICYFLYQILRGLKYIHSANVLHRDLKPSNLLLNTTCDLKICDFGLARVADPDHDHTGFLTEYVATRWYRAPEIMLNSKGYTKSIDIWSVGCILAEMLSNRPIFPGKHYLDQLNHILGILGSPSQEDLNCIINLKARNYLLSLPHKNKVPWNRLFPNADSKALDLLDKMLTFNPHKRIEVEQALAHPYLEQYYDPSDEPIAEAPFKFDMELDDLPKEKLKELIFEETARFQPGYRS

[4] = molecular target: RPS6KB1 (p70S6K) Ribosomal protein S6 kinase, 70 kDa, polypeptide 1 (human (printed as (h)), UniProt P23443 1-421, limits assumed)
Chain of RPS6KB1 (p70S6K) Ribosomal protein S6 kinase, 70 kDa, polypeptide 1 (human (printed as (h)), UniProt P23443 1-421, limits assumed) (P23443 1-421 limits assumed): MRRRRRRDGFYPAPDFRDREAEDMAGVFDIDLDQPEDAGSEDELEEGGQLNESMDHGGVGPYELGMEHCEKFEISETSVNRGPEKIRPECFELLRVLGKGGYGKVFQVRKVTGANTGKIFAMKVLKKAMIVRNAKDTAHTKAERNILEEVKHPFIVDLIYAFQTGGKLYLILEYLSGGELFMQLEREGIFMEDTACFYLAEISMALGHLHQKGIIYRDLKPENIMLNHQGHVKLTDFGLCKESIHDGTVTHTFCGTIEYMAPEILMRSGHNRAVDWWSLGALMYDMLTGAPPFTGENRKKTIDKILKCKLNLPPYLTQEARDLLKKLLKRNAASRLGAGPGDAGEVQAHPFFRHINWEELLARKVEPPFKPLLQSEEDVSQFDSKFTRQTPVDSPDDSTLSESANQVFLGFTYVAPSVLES

[5] = molecular target: T2, PDK1 (human (printed as (h)), UniProt O15530 1-556, limits assumed)
T2 sequence (looked up): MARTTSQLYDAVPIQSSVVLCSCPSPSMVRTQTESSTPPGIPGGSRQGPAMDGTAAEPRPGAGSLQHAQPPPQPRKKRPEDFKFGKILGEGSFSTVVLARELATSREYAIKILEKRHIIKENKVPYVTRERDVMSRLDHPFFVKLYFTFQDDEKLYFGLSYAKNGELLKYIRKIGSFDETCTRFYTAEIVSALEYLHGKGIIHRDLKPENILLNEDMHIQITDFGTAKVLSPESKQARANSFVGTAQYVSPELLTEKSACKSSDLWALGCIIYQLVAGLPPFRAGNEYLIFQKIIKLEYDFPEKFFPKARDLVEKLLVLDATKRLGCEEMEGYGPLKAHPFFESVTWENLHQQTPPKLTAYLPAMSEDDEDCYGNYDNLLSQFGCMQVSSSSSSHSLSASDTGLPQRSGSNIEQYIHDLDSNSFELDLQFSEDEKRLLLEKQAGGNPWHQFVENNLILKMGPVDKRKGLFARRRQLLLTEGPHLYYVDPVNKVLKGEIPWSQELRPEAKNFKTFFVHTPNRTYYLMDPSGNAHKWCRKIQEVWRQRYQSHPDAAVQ

[6] = molecular target: PKA(h) (human (printed as (h)), UniProt P17612 1-351)
[7] = molecular target: AKT2 (PKB beta) (human (printed as (h)), UniProt P31751 1-481, limits assumed)
Chain of AKT2 (PKB beta) (human (printed as (h)), UniProt P31751 1-481, limits assumed) (P31751 whole entry): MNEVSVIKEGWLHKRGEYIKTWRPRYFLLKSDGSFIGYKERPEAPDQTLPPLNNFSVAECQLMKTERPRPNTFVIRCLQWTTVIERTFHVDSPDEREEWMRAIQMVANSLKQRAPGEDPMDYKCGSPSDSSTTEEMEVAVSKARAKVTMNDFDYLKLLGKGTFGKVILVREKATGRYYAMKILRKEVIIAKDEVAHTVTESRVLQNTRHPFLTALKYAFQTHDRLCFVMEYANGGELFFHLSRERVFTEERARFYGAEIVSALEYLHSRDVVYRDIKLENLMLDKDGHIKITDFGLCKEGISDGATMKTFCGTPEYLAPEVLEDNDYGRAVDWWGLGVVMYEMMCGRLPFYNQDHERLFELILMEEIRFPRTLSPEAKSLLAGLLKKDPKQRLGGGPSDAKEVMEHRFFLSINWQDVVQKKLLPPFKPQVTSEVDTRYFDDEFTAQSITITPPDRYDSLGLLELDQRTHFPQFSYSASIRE

[8] = molecular target: PRKCB2 (PKC beta II) (human (printed as (h)), UniProt P05771-2 1-673)
Chain of PRKCB2 (PKC beta II) (human (printed as (h)), UniProt P05771-2 1-673) (P05771 other isoform, or with tags, fused parts or gaps limits assumed): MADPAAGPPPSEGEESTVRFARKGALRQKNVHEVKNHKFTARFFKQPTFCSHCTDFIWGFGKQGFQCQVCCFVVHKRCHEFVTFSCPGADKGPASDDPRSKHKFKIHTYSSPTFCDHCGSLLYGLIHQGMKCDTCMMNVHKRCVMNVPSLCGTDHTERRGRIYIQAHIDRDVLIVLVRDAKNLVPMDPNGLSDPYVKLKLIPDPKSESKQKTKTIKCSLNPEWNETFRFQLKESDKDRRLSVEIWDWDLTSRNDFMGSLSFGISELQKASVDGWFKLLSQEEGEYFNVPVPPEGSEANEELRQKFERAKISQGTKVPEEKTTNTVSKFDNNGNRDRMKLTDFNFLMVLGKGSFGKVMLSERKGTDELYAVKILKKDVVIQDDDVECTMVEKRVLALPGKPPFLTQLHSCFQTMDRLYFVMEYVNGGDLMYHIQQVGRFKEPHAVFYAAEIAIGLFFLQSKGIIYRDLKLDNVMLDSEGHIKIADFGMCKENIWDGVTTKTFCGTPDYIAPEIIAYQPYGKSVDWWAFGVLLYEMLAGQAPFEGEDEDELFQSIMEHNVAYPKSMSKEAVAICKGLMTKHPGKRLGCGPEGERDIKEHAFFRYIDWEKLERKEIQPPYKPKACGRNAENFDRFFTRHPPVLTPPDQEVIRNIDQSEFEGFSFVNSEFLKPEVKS

[9] = molecular target: T3, PRKCZ (PKC zeta) (human (printed as (h)), UniProt Q05513 1-592, limits assumed)
T3 sequence (looked up): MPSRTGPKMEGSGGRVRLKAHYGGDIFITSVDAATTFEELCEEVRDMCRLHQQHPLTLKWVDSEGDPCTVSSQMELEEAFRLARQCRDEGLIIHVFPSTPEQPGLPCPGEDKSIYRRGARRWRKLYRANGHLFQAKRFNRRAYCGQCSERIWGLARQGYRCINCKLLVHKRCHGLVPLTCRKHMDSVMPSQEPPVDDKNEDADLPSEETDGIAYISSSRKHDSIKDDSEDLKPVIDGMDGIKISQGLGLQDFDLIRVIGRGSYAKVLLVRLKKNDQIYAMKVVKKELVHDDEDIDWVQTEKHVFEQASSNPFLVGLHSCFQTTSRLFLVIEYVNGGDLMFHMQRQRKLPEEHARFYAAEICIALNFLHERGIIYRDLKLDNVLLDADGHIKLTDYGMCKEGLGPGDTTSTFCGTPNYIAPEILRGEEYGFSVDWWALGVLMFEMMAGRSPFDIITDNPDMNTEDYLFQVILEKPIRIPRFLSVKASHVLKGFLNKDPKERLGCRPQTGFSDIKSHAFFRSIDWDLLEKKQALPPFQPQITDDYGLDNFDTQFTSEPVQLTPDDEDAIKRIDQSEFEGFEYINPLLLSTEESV

SGRPPMIVWFNRPFLIAVSHTHGQTILFMAKVINPVGA [D3 peptide]
D3 at 0.1 µM % activity [1]: 103% | D3 at 1 µm % activity [1]: 71% | D3 at 0.1 µM % activity [2]: 96% | D3 at 1 µm % activity [2]: 103% | D3 at 0.1 µM % activity [3]: 96% | D3 at 1 µm % activity [3]: 96% | D3 at 0.1 µM % activity [4]: 73% | D3 at 1 µm % activity [4]: 22% | IC50 [4]: 373 nM | D3 at 0.1 µM % activity [5]: 98% | D3 at 1 µm % activity [5]: 108% | D3 at 0.1 µM % activity [6]: 115% | D3 at 1 µm % activity [6]: 105% | D3 at 0.1 µM % activity [7]: 63% | D3 at 1 µm % activity [7]: 12% | IC50 [7]: 448 nM | D3 at 0.1 µM % activity [8]: 101% | D3 at 1 µm % activity [8]: 103% | D3 at 0.1 µM % activity [9]: 95% | D3 at 1 µm % activity [9]: 42% | IC50 [9]: 1040 nM
